Assay results from patent publication US20060241289A1.
“And” between values parts separate entries of the source, which are not always exact repeats. Equal entries are not always repeated. Where two headings read alike, the source gives them in different places.

Columns and labels:
[1] = target: human TSH receptor on CHO cells (human) (UniProt P16473); assay: cell-based or functional assay
[2] = target: human TSH receptor on CHO cells (human) (UniProt P16473); assay: cell-based or functional assay; remark: listed apart in the source
[3] = target: TSH receptor coated onto plastic tubes (UniProt P16473); assay: TSHR coated tubes; 9D33 IgG 1 µg/mL; competitor 125I-TSH
[4] = target: TSH receptor coated onto plastic tubes (UniProt P16473); assay: TSHR coated tubes; 9D33 IgG 1 µg/mL; competitor 125I-9D33
[5] = target: TSH receptor coated onto plastic tubes (UniProt P16473); assay: TSHR coated tubes; 9D33 IgG 10 µg/mL; competitor 125I-TSH
[6] = target: TSH receptor coated onto plastic tubes (UniProt P16473); assay: TSHR coated tubes; 9D33 IgG 0.1 µg/mL; competitor 125I-TSH
[7] = target: TSH receptor coated onto plastic tubes (UniProt P16473); assay: TSHR coated tubes; 9D33 IgG 10 µg/mL; competitor 125I-9D33
[8] = target: TSH receptor coated onto plastic tubes (UniProt P16473); assay: TSHR coated tubes; 9D33 IgG 0.01 µg/mL; competitor 125I-TSH
[9] = target: TSH receptor coated onto plastic tubes (UniProt P16473); assay: TSHR coated tubes; 9D33 IgG 0.1 µg/mL; competitor 125I-9D33
[10] = target: TSH receptor coated onto plastic tubes (UniProt P16473); assay: TSHR coated tubes; 9D33 IgG 0.001 µg/mL; competitor 125I-TSH
[11] = target: TSH receptor coated onto plastic tubes (UniProt P16473); assay: TSHR coated tubes; 9D33 IgG 0.01 µg/mL; competitor 125I-9D33
[12] = target: TSH receptor coated onto plastic tubes (UniProt P16473); assay: TSHR coated tubes; 9D33 IgG 0.001 µg/mL; competitor 125I-9D33
[13] = target: TSH receptor coated onto plastic tubes (UniProt P16473); assay: TSHR coated tubes; 9D33 IgG 1 µg/mL; competitor 125I-hMAb TSHR1
[14] = target: TSH receptor coated onto plastic tubes (UniProt P16473); assay: TSHR coated tubes; 9D33 IgG 10 µg/mL; competitor 125I-hMAb TSHR1
[15] = target: TSH receptor coated onto plastic tubes (UniProt P16473); assay: TSHR coated tubes; 9D33 IgG 0.1 µg/mL; competitor 125I-hMAb TSHR1
[16] = target: TSH receptor coated onto plastic tubes (UniProt P16473); assay: TSHR coated tubes; 9D33 IgG 0.01 µg/mL; competitor 125I-hMAb TSHR1
[17] = target: TSH receptor coated onto plastic tubes (UniProt P16473); assay: TSHR coated tubes; 9D33 IgG 0.001 µg/mL; competitor 125I-hMAb TSHR1
[18] = target: TSH receptor coated onto plastic tubes (UniProt P16473); assay: 125I-9D33 binding to TSHR coated tubes in the pool of healthy blood donor sera
[19] = target: TSH receptor coated onto plastic tubes (UniProt P16473); assay: 125I-9D33 binding to TSHR coated tubes in the pool of healthy blood donor sera, no 90/672

B1: 2B4 IgG (mouse monoclonal antibody to the TSHR) (antibody, from another filing, V domains shown)
VH: DVQLQQSGTVLARPGASVRMSCKASGYSFTRYWIHWLKQRPGQGLEWIGAIFPGNRDTSYNQRFKGKAEVTAVTSASTAYLDLSSLTNEDSAVYYCTRWPYYGSIYVNFDYWGQGTTLTVSS
VL: DIVMTQSPLSLPVSLGDQASISCRTSQNLVHRNGNTYLHWYLQKPGQSPKLLIYKISNRFSGVPDRFSGSGSGTDFTLKISRVEAEDLGVYFCSQGTHVPPTFGGGTKLEIKR
B1 was tested, and the mean pmol cyclic AMP/cell well; 2B4 IgG 100 µg/mL alone (pmol/cell well) [1] was 0.331, the mean pmol cyclic AMP/cell well; hMAb TSHR1 Fab 5 ng/mL plus 2B4 IgG 100 µg/mL (pmol/cell well) [1] was 2.94 and the pmol cyclic AMP/cell well; 2B4 IgG 100 µg/mL alone (pmol/cell well) [1] was 0.298 and 0.318 and 0.376. The pmol cyclic AMP/cell well; hMAb TSHR1 Fab 5 ng/mL plus 2B4 IgG 100 µg/mL (pmol/cell well) [1] was 3.32 and 2.63 and 2.86, the x basal stimulation; 2B4 IgG 100 µg/mL alone [1] was 0.46 x basal and the x basal stimulation; hMAb TSHR1 Fab 5 ng/mL plus 2B4 IgG 100 µg/mL [1] was 4 x basal. The mean pmol cyclic AMP/cell well; 2B4 IgG 100 µg/mL alone (pmol/cell well) [2] was 0.49, the mean pmol cyclic AMP/cell well; pTSH 0.5 ng/mL plus 2B4 IgG 100 µg/mL (pmol/cell well) [2] was 0.78 and the pmol cyclic AMP/cell well; 2B4 IgG 100 µg/mL alone (pmol/cell well) [2] was 0.446 and 0.486 and 0.552. For the same binder, the pmol cyclic AMP/cell well; pTSH 0.5 ng/mL plus 2B4 IgG 100 µg/mL (pmol/cell well) [2] was 0.878 and 0.71 and 0.742, the x basal stimulation; 2B4 IgG 100 µg/mL alone [2] was 1.4 x basal and the x basal stimulation; pTSH 0.5 ng/mL plus 2B4 IgG 100 µg/mL [2] was 2.3 x basal.

B2: 9D33 IgG (mouse monoclonal antibody to the TSHR) (antibody, V domains shown)
VH: DVQIQQPGTELVKPGASVRLSCKASGYTFTTYWMHWVKQRPGQGLEWIGEIDPSDSYTNYNQKFKGKATLTVDKSSSTAYMHLSSLTSEDSAVYYCSRNYGSGYYFDYWGQGTTLTVSS
VL: GVEMTQSPAIMSASPGEKVTMTCSASSSVSYMHWYQQKSGTSPKRWIYDTSKLASGVPARFSGSGSGTSYSLTISSMETEDAATYYCQQWSSNPWTFGGGTKLEIK
B2 showed an inhibition of 125I-TSH binding [3] of 58%, an inhibition of 125I-9D33 binding [4] of 64% and an inhibition of 125I-TSH binding [5] of 68%. The inhibition of 125I-TSH binding [6] was 34%, the inhibition of 125I-9D33 binding [7] was 71% and the inhibition of 125I-TSH binding [8] was 17%. For the same binder, the inhibition of 125I-9D33 binding [9] was 35%, the inhibition of 125I-TSH binding [10] was 0% and the inhibition of 125I-9D33 binding [11] was 9%. For the same binder, the inhibition of 125I-9D33 binding [12] was 4%, the inhibition of 125I-hMAb TSHR1 binding [13] was 44% and the inhibition of 125I-hMAb TSHR1 binding [14] was 56%. For the same binder, the inhibition of 125I-hMAb TSHR1 binding [15] was 21%, the inhibition of 125I-hMAb TSHR1 binding [16] was 3% and the inhibition of 125I-hMAb TSHR1 binding [17] was 0%. It also gave a 125I-9D33 bound (% total counts added) [18] of 11% and a 125I-9D33 bound (% total counts added) [19] of 15%.
